The values below come from PMC11445581.

In experiment [1] the target is Anaphase Promoting Complex/Cyclosome (APC/C), endogenous, with APC8-mScarlet (human (endogenous in RPE-1)) (UniProt Q9UJX2). Nature of the experiment: fluorescence cross-correlation spectroscopy (FCCS); in living RPE-1 Cyclin B1-mEmerald+/+; APC8-mScarlet+/+ cells (metaphase by p-0009), measured in the cytoplasm; apparent.
For experiment [2] the target is unchanged. Nature of the experiment: fluorescence cross-correlation spectroscopy (FCCS); in living RPE-1 Cyclin B1-mEmerald+/+; APC8-mScarlet+/+ cells (metaphase by p-0009), measured at the chromosomes; apparent.
Experiment [3] shares this target. The experiment can be described thus: fluorescence cross-correlation spectroscopy (FCCS); in living RPE-1 Cyclin B1-mEmerald+/+; APC8-mScarlet+/+ cells (metaphase by p-0009), measured at the spindle poles; apparent.
For experiment [4] the target is unchanged. Nature of the experiment: fluorescence cross-correlation spectroscopy (FCCS); in living RPE-1 Cyclin B1-mEmerald+/+; APC8-mScarlet+/+ cells (metaphase by p-0009), measured at the spindle fibres; apparent.
Experiment [5] concerns the target Anaphase Promoting Complex/Cyclosome (APC/C) with APC8-mScarlet, endogenous (human (endogenous in RPE-1)) (UniProt Q9UJX2). Nature of the experiment: fluorescence cross-correlation spectroscopy (FCCS); living RPE-1 Cyclin B1-mEmerald+/+; APC8-mScarlet+/+ cells in metaphase (untreated; similar with MG132), measured in the cytoplasm; in vivo KD.
The target is the same in experiment [6]. Nature of the experiment: fluorescence cross-correlation spectroscopy (FCCS); living RPE-1 Cyclin B1-mEmerald+/+; APC8-mScarlet+/+ cells in metaphase (untreated; similar with MG132), measured at the chromatin (chromosomes); in vivo KD.
Experiment [7] deals with Nucleosome Core Particle NCP147, P04908;P68431;P62805. The experiment can be described thus: EMSA. To be noted: 2 µM Cyclin B1; parent: est. 18; read off a plot. A general note: In EMSA bound probe runs differently from free probe, usually more slowly.

For “Cyclin B1-mEmerald (endogenous) (from UniProt P14635 1-433) (natural protein)”, the Kd amounted to 176 nM in experiment [1], 83 nM in experiment [2], 81 nM in experiment [3] and 71 nM in experiment [4].

For “Cyclin B1-mEmerald (endogenous, both alleles tagged) (from UniProt P14635 1-433) (natural protein)”, the Kd in experiment [5] came out at 180 nM; in experiment [6], 80 nM.

For “Cyclin B1^WT-StrepII, full length (from UniProt P14635) L3A; R4A; V5A; T6A; R7A”, the other: Unbound NCP147 (%) in experiment [7] is 85%.

Regarding “Cyclin B1^WT-StrepII, full length (from UniProt P14635) R4E; R7E”, the other: Unbound NCP147 (%) in experiment [7] was determined as 54%.
